Reference: article PMC8065039 (Communications Biology, 2021)

Assays:
[1] = target: SARS-CoV-2 Spike protein on transfected CHO-K1 cells (GenScript RD00819) (SARS-CoV-2, UniProt P0DTC2); experiment: cell-based or functional assay
[2] = target: extracellular domain of SARS-CoV-2 S protein (S-ECD), 1-1208 aa, with two proline substitutions, GSAS … (SARS-CoV-2, Wuhan-Hu-1, UniProt P0DTC2, proline substitution at residue 986 | proline substitution at residue 987 | …); experiment: cryo-EM structure; conditions: both partners purified
[3] = target: SARS-CoV-2 Spike-Trimer protein (Shuimu BioSciences Ltd.) (SARS-CoV-2, Wuhan-Hu-1 assumed, UniProt P0DTC2); experiment: BLI; conditions: both partners purified
[4] = target: recombinant SARS-CoV-2 Spike RBD (catalogue number not stated for this experiment) (SARS-CoV-2, UniProt P0DTC2); experiment: ELISA; conditions: both partners purified
[5] = target: recombinant SARS-CoV-2 Spike S1 + S2 protein (40589-V08B1, Sino Biological) (SARS-CoV-2, Wuhan-1 (MN908947), UniProt P0DTC2); experiment: ELISA; conditions: both partners purified

B1: CA521^FALA (human IgG4 monoclonal antibody with the F234A/L235A mutation) (antibody, V domains shown)
VH: EVQLQQWGAGLLKPSETLSLTCAVYGGSFSGYYWSWIRQPPGKGLEWIGEVNHSGSTNYNPSLKSRVTISVDTSKNQLSLKLNSVTAADTAVYYCARGNTMVRGVIIPFEYWDKGTLVTVSS
VL: EIVLTQSPATLSLSPGERATLSCRASQSVSSYLAWYQQKPGQAPRLLIYDASNRATGIPARFSGSGSGTDFTLTISSLEPEDFAVYYCQQRSNWPLTFGGGTKVEIK
notes: also called CA521^FALA IgG; full-length CA521^FALA IgG; source: Expi-CHO Expression system, purified (protein A, Q FF, Capto S ImpAct)
With B1 the “IC50 of inhibition of SARS-CoV-2 pseudovirus transduction into Huh-7 cells” value [1] was 121 pM, the binding result [2] was “binds” and the Kd [3] was < 1 pM. For the same binder, the IC50 [4] was 343 pM and the EC50 [5] was 14 pM.
